The values that follow come from PMC5376495 (ACS combinatorial science, 2017).

Where no end group is shown, it is not given here. [ ]: non-standard residue; d: D form. Lys(Me3) = C[N+](C)(C)CCCC[C@H](N)C(=O)O

The target of the assay is His-tagged EED (His6X-EED), full length (UniProt O75530 1-441). The assay is described as follows: ITC.
His-tagged EED (His6X-EED), full length, sequence (O75530 whole entry): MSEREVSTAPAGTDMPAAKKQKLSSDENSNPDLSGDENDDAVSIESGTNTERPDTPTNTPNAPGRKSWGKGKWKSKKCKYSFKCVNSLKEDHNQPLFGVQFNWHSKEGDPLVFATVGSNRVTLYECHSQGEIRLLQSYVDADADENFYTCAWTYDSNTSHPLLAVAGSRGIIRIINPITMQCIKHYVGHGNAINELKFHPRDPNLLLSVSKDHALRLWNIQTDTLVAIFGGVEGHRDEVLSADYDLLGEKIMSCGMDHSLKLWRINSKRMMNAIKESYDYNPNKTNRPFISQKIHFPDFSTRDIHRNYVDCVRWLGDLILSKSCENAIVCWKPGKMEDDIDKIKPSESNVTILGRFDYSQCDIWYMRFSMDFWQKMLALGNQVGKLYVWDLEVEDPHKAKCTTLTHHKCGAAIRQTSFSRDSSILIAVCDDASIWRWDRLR

B1: UNC5115 (peptide)
chain: XKF
modifications: N-terminal (2S,3aS,7aS)-octahydro-1H-indole cap; methyl-isopropyl lysine (Kme,iPr); C-terminal piperidinyl ring in place of leucine
B1 gave a Kd of 1.14 ± 0.14 µM.

In the case of QR[Lys(Me3)]FA (peptide, UniProt Q92833 114-118, looked up) [Jarid2_(114–118)K116me3], the equilibrium dissociation constant (Kd) turned out to be 8.82 ± 2.06 µM.
